Reference: US20120201809A1 (COVX TECHNOLOGIES IRELAND, published 2012)
Like-named read-outs stand apart in the source and are kept apart here.

Experiments:
[1] = target: T1, human IGF1R on cells (mouse 3T3 cells engineered to express human IGF1R); human colon adenocarcinoma Colo205 … (human, UniProt P08069 31-1367); test: cell-based or functional assay
[2] = target: T1, human IGF1R on cells (mouse 3T3 cells …); test: cell-based or functional assay; remark: listed apart in the source

B1: 2.12.1.fx antibody (anti-IGF1R antibody) (antibody, human IgG2, kappa, V domains shown)
VH: QVQLVESGGGLVKPGGSLRLSCAASGFTFSDYYMSWIRQAPGKGLEWVSYISSSGSTRDYADSVKGRFTISRDNAKNSLYLQMNSLRAEDTAVYYCVRDGVETTFYYYYYGMDVWGQGTTVTVSS
VL: DIQMTQSPSSLSASVGDRVTITCRASQDIRRDLGWYQQKPGKAPKRLIYAASRLQSGVPSRFSGSGSGTEFTLTISSLQPEDFATYYCLQHNNYPRTFGQGTKLVIKR
[1]
  % IGF1R downregulated: 48%
[2]
  % IGF1R downregulated: 36%
